# B1: full length MEPE (phosphatonin) expressed in an insect cell line and excreted into the medium (ligand)
# chain: PTFQPQTEKTKQSCVEEQRQEEKNKDNIGFHHLGKRINQELSSKENIVQERKKDLSLSEASENKGSSKSQNYFTNRQRLNKEYSISNKENTHNGLRMSIYPKSTGNKGFEDGDDAISKLHDQEEYGAALIRNNMQHIMGPVTAIKLLGEENKENTPRNVLNIIPASMNYAKAHSKDKKKPQRDSQAQKSPVKSKSTHRIQHNIDYLKHLSKVKKIPSDFEGSGYTDLQERGDNDISPFSGDGQPFKDIPGKGEATGPDLEGKDIQTGFAGPSEAESTHLDTKKPGYNEIPEREENGGNTIGTRDETAKEADAVDVSLVEGSNDIMGSTNFKELPGREGNRVDAGSQNAHQGKVEFHYPPAPSKEKRKEGSSDAAESTNYNEIPKNGKGSTRKGVDHSNRNQATLNEKQRFPSKGKSQGLPIPSRGLDNEIKNEMDSFNGPSHENIITHGRKYHYVPHRQNNSTRNKGMPQGKGSWGRQPHSNRRFSSRRRDDSSESSDSGSSSESDGD
# notes: Secreted into insect cell medium; also called full length phosphatonin; Bac-1
# Target: the molecule itself
# Experiment: western blot, band at about 120kD read as a homodimer
protein,measurement,value
B1,binding result,binds

# Source: patent publication EP1870467A1 (UNIVERSITY COLLEGE LONDON, dated 2007)
